B1: Aik (protein)
chain: MDRSKENCISGPVKATAPVGGPKRVLVTQQFPCQNPLPVNSGQAQRVLCPSNSSQRIPLQAQKLVSSHKPVQNQKQKQLQATSVPHPVSRPLNNTQKSKQPLPSAPENNPEEELASKQKNEESKKRQWALEDFEIGRPLGKGKFGNVYLAREKQSKFILALKVLFKAQLEKAGVEHQLRREVEIQSHLRHPNILRLYGYFHDATRVYLILEYAPLGTVYRELQKLSKFDEQRTATYITELANALSYCHSKRVIHRDIKPENLLLGSAGELKIADFGWSVHAPSSRRTTLCGTLDYLPPEMIEGRMHDEKVDLWSLGVLCYEFLVGKPPFEANTYQETYKRISRVEFTFPDFVTEGARDLISRLLKHNPSQRPMLREVLEHPWITANSSKPSNCQNKESASKQS
B2: AIM-1 (Aurora and Ipl1-like midbody-associated protein) (protein)
chain: MAQKENSYPWPYGRQTAPSGLSTLPQRVLRKEPVTPSALVLMSRSNVQPTAAPGQKVMENSSGTPDILTRHFTIDDFEIGRPLGKGKFGNVYLAREKKSHFIVALKVLFKSQIEKEGVEHQLRREIEIQAHLHHPNILRLYNYFYDRRRIYLILEYAPRGELYKELQKSCTFDEQRTATIMEELADALMYCHGKKVIHRDIKPENLLLGLKGELKIADFGWSVHAPSLRRKTMCGTLDYLPPEMIEGRMHNEKVDLWCIGVLCYELLVGNPPFESASHNETYRRIVKVDLKFPASVPMGAQDLISKLLRHNPSERLPLAQVSAHPWVRANSRRVLPPSALQSVA

Tests used:
[1] = target: H3 histone, P68431
[2] = target: SAKI (Substrate of AIM-1 kinase)
SAKI (Substrate of AIM-1 kinase), sequence (chain, as listed by the source): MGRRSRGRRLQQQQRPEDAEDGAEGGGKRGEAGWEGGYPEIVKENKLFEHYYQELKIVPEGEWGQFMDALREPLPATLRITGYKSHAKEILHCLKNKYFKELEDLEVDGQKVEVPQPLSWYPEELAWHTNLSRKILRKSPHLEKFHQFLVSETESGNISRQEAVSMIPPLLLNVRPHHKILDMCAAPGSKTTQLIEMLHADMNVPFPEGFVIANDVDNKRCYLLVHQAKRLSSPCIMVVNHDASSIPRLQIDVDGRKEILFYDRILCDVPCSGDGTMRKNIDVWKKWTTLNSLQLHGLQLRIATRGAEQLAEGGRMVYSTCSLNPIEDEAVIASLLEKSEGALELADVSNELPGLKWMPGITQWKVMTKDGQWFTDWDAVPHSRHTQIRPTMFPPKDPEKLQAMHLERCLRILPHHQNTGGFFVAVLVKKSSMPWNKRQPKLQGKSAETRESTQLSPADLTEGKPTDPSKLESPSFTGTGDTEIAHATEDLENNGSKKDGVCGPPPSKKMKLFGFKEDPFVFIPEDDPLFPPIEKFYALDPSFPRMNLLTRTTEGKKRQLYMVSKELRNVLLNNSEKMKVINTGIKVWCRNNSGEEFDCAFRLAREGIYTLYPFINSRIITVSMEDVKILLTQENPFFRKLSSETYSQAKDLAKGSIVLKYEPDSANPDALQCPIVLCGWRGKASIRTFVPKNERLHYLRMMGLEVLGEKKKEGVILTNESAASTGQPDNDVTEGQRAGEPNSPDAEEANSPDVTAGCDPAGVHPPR

Row | Protein | in-vitro phosphorylation experiments [1] | immunoblotting with the anti-H3 histone Ser-10 phosphorylation site antibody after expression of the AIM-1 kinase-deficient mutant protein in HeLa [2]
1 | B1 | both AIM-1 and Aik phosphorylated H3 histone | –
2 | B2 | both AIM-1 and Aik phosphorylated H3 histone | there was a protein that is seemingly phosphorylated by AIM-1 in the region close to 100 kDa

Reference: patent US20090305255
